Test results as given in paper PMC8048981 (2021).
Bridge positions count the residues as written; N and C are the ends.

Target: MDM2 (Homo sapiens, UniProt Q00987)
Test: fluorescence polarization

Sequence of MDM2 (Q00987 whole entry): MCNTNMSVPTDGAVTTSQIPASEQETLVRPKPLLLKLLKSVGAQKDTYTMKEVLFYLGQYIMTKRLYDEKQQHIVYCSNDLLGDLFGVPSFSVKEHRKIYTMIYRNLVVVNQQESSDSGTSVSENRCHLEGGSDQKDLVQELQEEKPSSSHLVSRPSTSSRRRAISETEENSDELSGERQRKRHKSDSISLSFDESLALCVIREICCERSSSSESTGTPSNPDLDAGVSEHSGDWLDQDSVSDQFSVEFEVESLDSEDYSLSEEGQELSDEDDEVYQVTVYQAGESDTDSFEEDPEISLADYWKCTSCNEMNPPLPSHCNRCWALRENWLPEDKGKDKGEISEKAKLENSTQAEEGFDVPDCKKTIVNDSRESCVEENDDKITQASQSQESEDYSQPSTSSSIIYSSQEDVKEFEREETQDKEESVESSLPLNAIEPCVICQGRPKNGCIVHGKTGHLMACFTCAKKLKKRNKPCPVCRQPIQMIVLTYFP

Kd | Binder
346 nM | {5(6)‑carboxyfluorescein}-QSQQTFCNLWRLLKQN-NH2 [linear p53-derived peptide 28']
29 nM | {5(6)‑carboxyfluorescein}-QSQQTFCNLWRLLKQN-NH2 (linker 7-14 via para‑phenyl thioalkyne amide (reagent 9a)) [stapled p53-derived peptide 29a']
